Results taken from the RNAGym collection of RNA variant scans (doi:10.7554/elife.90254).

B1: LINE1-full (parent)
chain: UACGUAGGUGGUUUUCCCCUGAUAGUGCUAAGGGGGCCUGGAAGUUUGGACUGGGCAGAGCUCAACACAGCGUGGCAAAGUGGCUGUGGCUAGACUGCCUCUCUGGAUUCCUCGUCACUCAGCAGGGCAUCUCUGAGAGAAAUGCC

Variants of: B1
Assay: self-cleavage, relative activity (ratio to wild type); higher = more cleavage; in vitro, sequencing; the parent is a self-cleaving ribozyme

Variant | self-cleavage
U62A A64C | 0.11
A57G U62A | 0.05
U13A U143G | 1.01
U13A U143A | 0.84
A31G U39G | 1.37
U62C U91C | 0.04
U15C G74A | 1.4
A6U A30G | 1.01
U132A U143C | 1.82
G80U U109C | 1.21
A69C U119A | 0.04
G54A U100C | 0.31
U14A C103U | 0.99
G36A C38A | 1.18
U29C U47C | 1.85
U47C A136U | 1.24
A22G C90U | 0.04
C37A A136G | 1.04
U12G A22C | 1.68
A77G C98U | 0.54
G8A A78G | 2.03
A42C A142G | 1.23
C99U A107G | 0.83
A77U A117C | 1.76

Variant | self-cleavage
C66U U143C | 0.03
C28U A140U | 0.95
A65U U91C | 0.08
U29A A141G | 1.15
C19U C133A | 0.59
G53U A142G | 1.2
U87A U119G | 0.07
U39C C128U | 1.16
G34A A129G | 1.08
A22C U143C | 1.41
G58A A77G | 0.06
G126C A140G | 2.25
A65G C90U | 0.03
A30G U119C | 1.45
G35U C145U | 1.21
C19U U26C | 1.32
C19G A78G | 1.24
U100G C116U | 1.61
U12A G49A | 1.05
C145U C146A | 1.59
G33U A77C | 0.83
G27A | 1.07
U81A C145A | 2.25
U12G A64C | 0.55

Variant | self-cleavage
G35A A50G | 0.58
U9A G89A | 0.1
U15A A79G | 0
U112A A138G | 1.57
U15G G144A | 0.82
A31G U134A | 0.45
U100C U119C | 1.87
A64G A79U | 0.34
U20C G86A | 0.11
A57U A140G | 0.11
A117C A124U | 1.14
A77U A142G | 1.46
U12G A107U | 0.98
A59U U130C | 0.63
C71A U73C | 0.31
U81C U119A | 1.59
G34C U73C | 1.82
U13G A92G | 0
U115A U134A | 0.95
U23C A129G | 0
G34U A50U | 0.39
A65C G97A | 0.04
A42U U109A | 1.39
G7A A107G | 1.22

Variant | self-cleavage
A67C A117C | 0.03
A117U C128A | 0.99
U62C G82A | 0.04
U104A U115C | 1.42
U39G A65C | 0.04
C76U A138G | 2.42
G53A U87C | 0.18
C16A A124G | 0.4
U20A G97C | 0.34
G55A A124U | 0.19
U13C A59G | 0.13
C99A U108C | 1.2
A42U A121C | 2.42
U9A C113U | 0.97
C63U U85C | 0.08
U12C A117U | 1.28
U14C A42G | 1.15
U104C C146U | 2.3
U14C G36A | 1.55
G32A G122A | 2.13
C18U U109A | 0.9
G27A G144A | 1.08
G35U U100A | 0.78
A24G U115C | 1.46

Variant | self-cleavage
A43G A57U | 0.21
U45G A121G | 0.46
A65U A69C | 0.02
C18A G36A | 1.12
G40C | 1.12
A78G U85C | 0.11
U9A U104C | 1.17
A50G G144U | 0.25
G8A U20C | 1.59
U29C U104C | 1
A50G A94U | 0.27
G48U G88C | 0.04
A69G A117U | 0.64
U26A | 0.94
U39A G86A | 0.08
U102A G135A | 1.47
U104G U130C | 0.75
U9C A94G | 0.66
U81A U134A | 2.49
U15A A31U | 1.05
U39C A64G | 0.24
G97U C123U | 0.03
U81C A129U | 1.48
U62G U115C | 0

Variant | self-cleavage
A129G A138G | 1.44
A30G U112A | 1.1
U112C A140G | 0.83
A24U C123U | 1.02
U15A U39G | 1.02
G7U A142G | 1.15
A24G A138G | 1.07
U39C U104G | 0.93
C84A C145U | 0.08
U5A U47A | 0.59
U26A A117G | 1.11
G27A A69C | 0.11
U130C U143A | 1.51
U73G U104C | 2
A79G U134A | 1.07
U12C U100C | 1.6
U85C G97U | 0.02
C3U G82U | 0.88
U112A U134A | 1.09
U52C C99U | 0.64
U23C G126A | 1.18
A78U U134A | 2.08
A64C U100C | 0.62
A69U U132C | 0.07

Variant | self-cleavage
A67U A124G | 0.02
U12C G58A | 0.09
G8A A140G | 1.55
U100A U119C | 1.23
A59G C84A | 0.04
A31U A124G | 1.09
A78G G86A | 0.05
U81G A107G | 1.01
A31U A121U | 0.51
C84A U91C | 0.13
U9A U143C | 0.94
C101U A121G | 1.72
U112G A142G | 1.27
U15C A124G | 1.39
U15C U81G | 1.89
C68U G122U | 0.21
U13C U85A | 0.13
U47A C71U | 0.9
U52A A57G | 0.89
A43G U104C | 1.68
G83A A121G | 0.98
U13C A124G | 1.04
U15G A129G | 0.61
